# Results published in US9958461B2, “Detection of protein to protein interactions” (THE GOVERNING COUNCIL OF THE UNIVERSITY OF TORONTO, priority 2013, dated 2018).
# B1: PRKCE (protein, UniProt Q02156 1-737, looked up)
# Protein kinase C epsilon type: MVVFNGLLKIKICEAVSLKPTAWSLRHAVGPRPQTFLLDPYIALNVDDSRIGQTATKQKTNSPAWHDEFVTDVCNGRKIELAVFHDAPIGYDDFVANCTIQFEELLQNGSRHFEDWIDLEPEGRVYVIIDLSGSSGEAPKDNEERVFRERMRPRKRQGAVRRRVHQVNGHKFMATYLRQPTYCSHCRDFIWGVIGKQGYQCQVCTCVVHKRCHELIITKCAGLKKQETPDQVGSQRFSVNMPHKFGIHNYKVPTFCDHCGSLLWGLLRQGLQCKVCKMNVHRRCETNVAPNCGVDARGIAKVLADLGVTPDKITNSGQRRKKLIAGAESPQPASGSSPSEEDRSKSAPTSPCDQEIKELENNIRKALSFDNRGEEHRAASSPDGQLMSPGENGEVRQGQAKRLGLDEFNFIKVLGKGSFGKVMLAELKGKDEVYAVKVLKKDVILQDDDVDCTMTEKRILALARKHPYLTQLYCCFQTKDRLFFVMEYVNGGDLMFQIQRSRKFDEPRSRFYAAEVTSALMFLHQHGVIYRDLKLDNILLDAEGHCKLADFGMCKEGILNGVTTTTFCGTPDYIAPEILQELEYGPSVDWWALGVLMYEMMAGQPPFEADNEDDLFESILHDDVLYPVWLSKEAVSILKAFMTKNPHKRLGCVASQNGEDAIKQHPFFKEIDWVLLEQKKIKPPFKPRIKTKRDVNNFDQDFTREEPVLTLVDEAIVKQINQEEFKGFSYFGEDLMP
# B2: PTPN2 (protein, UniProt P17706 1-415, looked up)
# Tyrosine-protein phosphatase …: MPTTIEREFEELDTQRRWQPLYLEIRNESHDYPHRVAKFPENRNRNRYRDVSPYDHSRVKLQNAENDYINASLVDIEEAQRSYILTQGPLPNTCCHFWLMVWQQKTKAVVMLNRIVEKESVKCAQYWPTDDQEMLFKETGFSVKLLSEDVKSYYTVHLLQLENINSGETRTISHFHYTTWPDFGVPESPASFLNFLFKVRESGSLNPDHGPAVIHCSAGIGRSGTFSLVDTCLVLMEKGDDINIKQVLLNMRKYRMGLIQTPDQLRFSYMAIIEGAKCIKGDSSIQKRWKELSKEDLSPAFDHSPNKIMTEKYNGNRIGLEEEKLTGDRCTGLSSKMQDTMEENSESALRKRIREDRKATTAQKVQQMKQRLNENERKRKRWLYWQPILTKMGFMSVILVGAFVGWTLFFQQNAL
# B3: MAPK8IP2 (protein, UniProt Q13387 1-824, looked up)
# C-Jun-amino-terminal …: MADRAEMFSLSTFHSLSPPGCRPPQDISLEEFDDEDLSEITDDCGLGLSYDSDHCEKDSLSLGRSEQPHPICSFQDDFQEFEMIDDNEEEDDEDEEEEEEEEEGDGEGQEGGDPGSEAPAPGPLIPSPSVEEPHKHRPTTLRLTTLGAQDSLNNNGGFDLVRPASWQETALCSPAPEALRELPGPLPATDTGPGGAQSPVRPGCDCEGNRPAEPPAPGGTSPSSDPGIEADLRSRSSGGRGGRRSSQELSSPGSDSEDAGGARLGRMISSISETELELSSDGGSSSSGRSSHLTNSIEEASSPASEPEPPREPPRRPAFLPVGPDDTNSEYESGSESEPDLSEDADSPWLLSNLVSRMISEGSSPIRCPGQCLSPAPRPPGEPVSPAGGAAQDSQDPEAAAGPGGVELVDMETLCAPPPPAPAAPRPGPAQPGPCLFLSNPTRDTITPLWAAPGRAARPGRACSAACSEEEDEEDDEEEEDAEDSAGSPGGRGTGPSAPRDASLVYDAVKYTLVVDEHTQLELVSLRRCAGLGHDSEEDSGGEASEEEAGAALLGGGQVSGDTSPDSPDLTFSKKFLNVFVNSTSRSSSTESFGLFSCLVNGEEREQTHRAVFRFIPRHPDELELDVDDPVLVEAEEDDFWFRGFNMRTGERGVFPAFYAHAVPGPAKDLLGSKRSPCWVERFDVQFLGSVEVPCHQGNGILCAAMQKIATARKLTVHLRPPASCDLEISLRGVKLSLSGGGPEFQRCSHFFQMKNISFCGCHPRNSCYFGFITKHPLLSRFACHVFVSQESMRPVAQSVGRAFLEYYQEHLAYACPTEDIYLE
# B4: SOCS6 (protein, UniProt O14544 1-535, looked up)
# Suppressor of cytokine …: MKKISLKTLRKSFNLNKSKEETDFMVVQQPSLASDFGKDDSLFGSCYGKDMASCDINGEDEKGGKNRSKSESLMGTLKRRLSAKQKSKGKAGTPSGSSADEDTFSSSSAPIVFKDVRAQRPIRSTSLRSHHYSPAPWPLRPTNSEETCIKMEVRVKALVHSSSPSPALNGVRKDFHDLQSETTCQEQANSLKSSASHNGDLHLHLDEHVPVVIGLMPQDYIQYTVPLDEGMYPLEGSRSYCLDSSSPMEVSAVPPQVGGRAFPEDESQVDQDLVVAPEIFVDQSVNGLLIGTTGVMLQSPRAGHDDVPPLSPLLPPMQNNQIQRNFSGLTGTEAHVAESMRCHLNFDPNSAPGVARVYDSVQSSGPMVVTSLTEELKKLAKQGWYWGPITRWEAEGKLANVPDGSFLVRDSSDDRYLLSLSFRSHGKTLHTRIEHSNGRFSFYEQPDVEGHTSIVDLIEHSIRDSENGAFCYSRSRLPGSATYPVRLTNPVSRFMQVRSLQYLCRFVIRQYTRIDLIQKLPLPNKMKDYLQEKHY
# Biological target: T1, EGFR-L858R (Homo sapiens, UniProt P00533, L858R)
# T1 construct: with the advantage of testing full-length integral membrane proteins; (GGGGS)2 linker-Cub (human ubiquitin aa 35-76)-GAL4(1-147)-mNFkB(364-550) (C); expressed in transfected cells
# Experiment: MaMTH EGFR-interactor screen, lentiviral preys against EGFR-L858R bait (interaction score)
# Type: cell-based
# Conditions: MaMTH interaction score of prey with EGFR-L858R bait
# Outline: (§1)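 Interaction score is the luciferase fold-change versus averaged negative controls (Fabp5, Pex19, Pex7, GABBR2), with >1 called interacting. Luciferase was measured 24 h after triplicate bait transfection. This followed single-copy prey transduction (MOI ~0.3-0.4) of GAL4UAS-luciferase HEK293T cells and ≥48 h puromycin selection.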
row,Molecule,EGFR-L858R mean
1,B1,6.77
2,B2,1.36
3,B3,1.63
4,B4,5.90

# Biological target: T2, EGFR-Wt (Homo sapiens, UniProt P00533)
# T2 construct: with the advantage of testing full-length integral membrane proteins; (GGGGS)2 linker-Cub (human ubiquitin aa 35-76)-GAL4(1-147)-mNFkB(364-550) (C); expressed in transfected cells
# Experiment: MaMTH EGFR-interactor screen, lentiviral preys against EGFR-wildtype bait (interaction score)
# Type: cell-based
# Conditions: MaMTH interaction score of prey with EGFR-Wt bait, mean
# Outline: as §1
row,Molecule,EGFR-Wt mean
1,B1,6.30
2,B2,1.27
3,B3,1.52
4,B4,1.22

# System: EGFR-Wt
# Experiment: as above
# Type: cell-based, human
# Conditions: ratio of EGFR-Wt mean to EGFR-L858R mean interaction score
# Outline: as §1
row,Molecule,Wt/L858R
1,B1,0.93
2,B2,0.93
3,B3,0.93
4,B4,0.21
